This note sets out measurements from article PMC10873206 (Nature Structural & Molecular Biology, 2024).

One assay deals with T1, neddylated CUL1–RBX1 (human, UniProt Q13616 1-776; P62877 5-108; Q15843 1-76, NEDD8 covalently linked to a conserved cullin lysine (WHB domain) | C terminus covalently linked to the cullin lysine).
T1 construct: CUL1, human, wild type; RBX1, human, residues 5 to C terminus; NEDD8, human; purified as previously described; also called NEDD8–CUL1–RBX1; neddylated CRL1 core; source: High Five insect cells (baculovirus), co-expressed, purified (GST-sepharose, TEV cleavage, ion exchange, SEC); neddylated as previously described; not shown: GST, N-terminal, cleaved; copies: + +
In words: cryo-EM structure; trapped chain formation complex: neddylated CUL1–RBX1, SKP1–FBXW7, K48C ubiquitin–cyclin E phosphopeptide, donor ubiquitin(1–75), UBE2R2; SEC-purified; 8.1 Å map, rigid-body fits. The conditions noted are these: both partners purified.

In assay [1] the target is T2, His-ubiquitin(1–75)–BmDPA (human, UniProt P0CG48 1-75, C terminus (residue 75) conjugated to (E)-3-[2-(bromomethyl)-1,3-dioxolan-2-yl]prop-2-en-1-amine (BmDPA), cross-linked to Cys48 of the acceptor ubiquitin and to the UBE2R2 active site cysteine).
T2 construct: ubiquitin, human, residues 1–75; also called UBD; donor ubiquitin
Briefly: cryo-EM structure; trapped chain formation complex: neddylated CUL2–RBX1, Elongin B/C–VHL, PROTAC MZ1, K48C ubiquitin–BRD4 (352–460), donor ubiquitin(1–75), UBE2R2; SEC-purified; 7.5 Å map, rigid-body fits. To be noted: both partners purified.

T1 sequence (Q13616 whole entry, chain 1 of 3, the tested form may be a part): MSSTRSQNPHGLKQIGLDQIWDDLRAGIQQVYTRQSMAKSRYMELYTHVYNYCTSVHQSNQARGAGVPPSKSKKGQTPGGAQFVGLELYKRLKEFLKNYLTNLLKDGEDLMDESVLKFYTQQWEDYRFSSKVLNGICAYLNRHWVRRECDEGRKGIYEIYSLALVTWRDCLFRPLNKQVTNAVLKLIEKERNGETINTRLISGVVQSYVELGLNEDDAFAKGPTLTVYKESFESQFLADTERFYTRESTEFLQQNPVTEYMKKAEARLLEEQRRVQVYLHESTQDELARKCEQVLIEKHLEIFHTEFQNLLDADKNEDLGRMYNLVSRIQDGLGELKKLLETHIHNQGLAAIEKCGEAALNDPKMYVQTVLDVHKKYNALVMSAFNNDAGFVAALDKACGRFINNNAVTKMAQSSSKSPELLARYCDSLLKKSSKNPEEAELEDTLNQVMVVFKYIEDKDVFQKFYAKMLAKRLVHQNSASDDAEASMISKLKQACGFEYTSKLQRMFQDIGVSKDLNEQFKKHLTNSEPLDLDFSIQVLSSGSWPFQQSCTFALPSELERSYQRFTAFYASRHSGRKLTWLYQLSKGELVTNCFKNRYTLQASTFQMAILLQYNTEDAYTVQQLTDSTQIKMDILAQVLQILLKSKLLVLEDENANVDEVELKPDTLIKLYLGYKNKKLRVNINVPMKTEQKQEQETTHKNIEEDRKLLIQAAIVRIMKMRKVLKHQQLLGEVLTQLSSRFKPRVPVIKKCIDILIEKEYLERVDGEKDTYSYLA
T1 sequence (P62877 5-108, chain 2 of 3): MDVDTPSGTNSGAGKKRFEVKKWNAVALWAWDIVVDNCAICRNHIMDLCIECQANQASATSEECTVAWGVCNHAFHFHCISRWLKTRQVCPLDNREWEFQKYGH
T1 sequence (Q15843 1-76, chain 3 of 3): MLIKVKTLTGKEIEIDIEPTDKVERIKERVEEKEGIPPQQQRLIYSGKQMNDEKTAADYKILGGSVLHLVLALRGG

B1: UBE2R2 (enzyme, human, UniProt Q712K3 1-238, looked up)
chain: MAQQQMTSSQKALMLELKSLQEEPVEGFRITLVDESDLYNWEVAIFGPPNTLYEGGYFKAHIKFPIDYPYSPPTFRFLTKMWHPNIYENGDVCISILHPPVDDPQSGELPSERWNPTQNVRTILLSVISLLNEPNTFSPANVDASVMFRKWRDSKGKDKEYAEIIRKQVSATKAEAEKDGVKVPTTLAEYCIKTKVPSNDNSSDLLYDDLYDDDIDDEDEEEEDADCYDDDDSGNEES
notes: UBE2R2, human, wild type; In the trapped cryo-EM complexes the active site Cys93 is cross-linked to the BmDPA ligation mimic; in the di-ubiquitin synthesis assays it is thioesterified to 32P-labelled donor ubiquitin; also called WT (R2); UBE2R2 FL; source: E. coli Rosetta (DE3), purified (nickel-agarose or GST-sepharose, TEV, SEC); not shown: GST or 6xHis (either), N-terminal, cleaved
On to B1, for which the binding result (in the assay with neddylated CUL1–RBX1; in assay [1]) was “binds” each time.
